According to article PMC4592898, “Biochemical Characterisation of Phage Pseudomurein Endoisopeptidases PeiW and PeiP Using Synthetic Peptides” (Archaea, 2015):

What was measured:
[1] = substrate: C[C@H](NC(=O)CC[C@H](N)C(=O)O)C(=O)Nc1ccc([N+](=O)[O-])cc1; test: purified protein; type: biochemical, Methanobacterium phage psiM2; conditions: 60 °C, pH 7.85 Bistris propane, 10 mM CaCl2, 10 mM TCEP, aerobic, substrate range below Km
[2] = substrate: C[C@H](NC(=O)CC[C@H](N)C(=O)O)C(=O)Nc1ccc([N+](=O)[O-])cc1; test: purified protein; type: biochemical, Methanothermobacter phage psiM100; conditions: 60 °C, pH 7.85 Bistris propane, 10 mM CaCl2, 10 mM TCEP, aerobic, substrate range limited to about 1 x Km

Protein | Km [1] [mM] | kcat [1] [s⁻¹] | Km [2] [mM] | kcat [2] [s⁻¹]
PeiP (Methanobacterium phage psiM2) (protein, N-terminal His-tag kept, pET151D, E. coli BL21-Rosetta 2; 338 residues and 39,537 Da with tag; monomer) MRSNSVNIETFKDMLKRYEDFKMKNKREPRVIFIRSGGGESIPLETFRDMVRRYNNFKDRYGREPRIVYVTPPEPPVPEVNENTPEYVSITQFKDMLSRYNRFKEVNGREPRVVFIYSGGGPSVSLETFKDMCKRYNQFLEENRREPRIVYVTPPEPPVPEEVREMRRVLGEFKTATQLYTLVSRRCKYKFYYNDQTPNREALKKMVTDGINCTDACQLFKPVIEGLGYSVRIEHVKVRCNDNKWYGHYFLRVAGKELASVSLPSERWTVWDYVSATKTGRPLGAPCCSRGIQHLGWGIVSPKHD | 4.14 ± 0.14 | 1.18 ± 0.03 |  | 
PeiW (Methanothermobacter phage psiM100) (protein, N-terminal His-tag kept, pET151D, E. coli BL21-Rosetta 2; 317 residues and 37,219 Da with tag; monomer) MEVGLNEFLDMKKRYEDFKMKNKREPRYVTTKNGYKVMLPVFKDMLRRYEDFVRINGREPNYISIQPQPNGKIEIKKFRDMLRRYEDFVRINGREPNIIYLEQGKSDHVSLGTFKDMLRRYKDFVRINGREPNYISIQPQPSLKGHWTTKVIEKIGTFHDATSLYERVKKTCKYKYYYNDQVPNHVAVMRMTTSGINCTDACQLFSKVLEEMGYEVKIEHVRVKCNDGKWYGHYLLRVGGFELKDGTIWDYVSATKTGRPLGVPCCTAGFQHLGWGIVGPVYDK |  |  | 6.25 ± 0.44 | 5.73 ± 0.22
